Results reported in the supplement of paper PMC10126150.
± gives the standard deviation of the averaged measurements.

Tested on: ATP
Test: switch fluorescence ratio, 500 uM ATP over buffer (Cy3 cluster intensity, sum of 5 cycles each) (fold (ratio)); higher = stronger signal-on switching upon ATP binding; sequences stand for … in TCGTCGGCAGCGTCAGATGTGTATAAGAGACAGTTTTTTTTTTTTTTTTTTTTTTTTT…TC
Conditions: aptamer strand: ATP DNA aptamer (quencher-CACCTGGGGGAGTATTGCGGAGGAAGG + anchor), 100 nM annealed; ATP concentration: 500 uM
Summary of the method: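 Cy3-labelled switching-strand clusters on a modified Illumina MiSeq flow-cell were annealed to 100 nM quencher-labelled ATP aptamer and imaged first in selection buffer, then after 15 min with 500 uM ATP at 22 °C. NaOH stripping and re-annealing separated each of five buffer/ATP cycles, and clusters outside 100-1000 RFU were excluded. The fluorescence ratio sums target-cycle Cy3 intensity over buffer-cycle Cy3 intensity per cluster and averages it per switch-domain sequence.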
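Also: ATP exposure 15 min at 22 °C before imaging.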

Sequence | switch fluorescence ratio
TGGGGTTCGG | 1 ± 0.079
ATAATGAGTC | 0.961 ± 0.013
TATTAGGGTC | 1.02 ± 0.02
TGAGGGACGC | 0.996 ± 0.021
AACTTAAGGG | 1.003 ± 0.0092
AGGACGTAGC | 1.09 ± 0.018
TGGTCTAGGA | 1.01 ± 0.011
ACGGGAGTGG | 0.998 ± 0.011
AATGGTGCGC | 0.984 ± 0.017
AATTGGTAGG | 1 ± 0.072
GCGGGGGCTT | 0.98 ± 0.033
CGATCATAGG | 1.01 ± 0.049
TTCAGGGTAC | 0.987 ± 0.039
AGTTCGTTTT | 0.987 ± 0.019
AGGCTGTCAC | 0.996 ± 0.013
AGTTGTTGTT | 0.981 ± 0.022
ACATTGATAT | 1.01 ± 0.011
CCTTATTAGT | 0.984 ± 0.012
TAAGTTTGCC | 1.01 ± 0.04
ATTGTTATAT | 1 ± 0.03
CGAGGGTATG | 1.01 ± 0.027
TTATGGATAA | 1 ± 0.018
ACGGTAACGC | 1.02 ± 0.011
TTAAACCTAA | 1.02 ± 0.052
TCATCGGCAT | 4.07 ± 1.3

Sequence | switch fluorescence ratio
CGAAAAGAGG | 1.1 ± 0.26
TGGTGGATCT | 0.9904 ± 0.0063
TAAGGGGTGC | 1.06 ± 0.014
TGGTAATGGT | 1.03 ± 0.074
TTACTGCGTA | 1.02 ± 0.015
TGTAGTACTG | 1.02 ± 0.043
TTACATTGTT | 1.06 ± 0.11
GCGGTCGGTA | 1.03 ± 0.038
GGGATCGGTG | 0.995 ± 0.016
CAAGTGTACG | 1.01 ± 0.042
AATAAATCGT | 0.998 ± 0.024
GAGGGAGGGG | 1.02 ± 0.044
GGCTTTAGTA | 1.02 ± 0.027
CATTTCTAGA | 0.9709 ± 0.0055
GTGGATAAAA | 0.972 ± 0.029
CAGATGCCTC | 1.012 ± 0.0086
AATGGGTCTA | 0.985 ± 0.02
ATTTTAGT | 1.01 ± 0.038
TTTATTTCCT | 1.07 ± 0.04
CTCGGATGTC | 0.991 ± 0.022
GGTGGTGGGA | 0.977 ± 0.04
AGGATGGGAG | 0.999 ± 0.023
CCTGTTTTCG | 1.06 ± 0.05
AGGGCGTTTG | 0.998 ± 0.018
GCGTTATACA | 0.9979 ± 0.0039

Sequence | switch fluorescence ratio
ATTTTGAATG | 0.979 ± 0.05
ATCAGAGGTA | 1.01 ± 0.014
ACCAGTCTAG | 0.979 ± 0.018
TTTCAATTAA | 1 ± 0.013
GGATCCAGTA | 1.02 ± 0.045
CTTTTAACGA | 1.01 ± 0.03
GCTATAAGCC | 1.05 ± 0.039
CCGCTTAGAT | 2.34 ± 0.23
GCCGTCGTTG | 1 ± 0.019
ATATAATCAA | 0.98075 ± 0.00037
GAAGGTATCC | 1.02 ± 0.037
CGCATGTCTT | 1.07 ± 0.0029
AAGCCGGGGG | 0.987 ± 0.019
ATGTTTACTG | 1.033 ± 0.0082
CATGGGCGGG | 0.983 ± 0.022
TTACCAGGGG | 1.4 ± 0.25
TTAAGTTTTC | 0.979 ± 0.015
AGGGTCTTCG | 1.04 ± 0.012
TGCTACAGTT | 0.985 ± 0.024
TTCTGTTCTG | 1.01 ± 0.039
AGAAATTAGT | 1.03 ± 0.015
TACCATATTT | 1.04 ± 0.021
GCTAAAAGGA | 0.975 ± 0.021
ATTCGGGGTG | 1.05 ± 0.11
TTTAGTTAAG | 0.945 ± 0.038

Sequence | switch fluorescence ratio
GATTTGGATT | 0.993 ± 0.012
GCAAGAGTGG | 1 ± 0.034
CAGGGGCCAA | 0.979 ± 0.017
AGGTGGGTTG | 1.01 ± 0.055
TGTGGTTACA | 0.989 ± 0.025
GGGCATGAAA | 1.02 ± 0.021
AGGAGCGCGT | 1.02 ± 0.051
AACTGAGGGA | 1.022 ± 0.0069
CAAAAACGTT | 1.02 ± 0.024
TATCGAAGTT | 1.013 ± 0.0018
GAAAGTGGGA | 0.988 ± 0.025
GGGAGTGTGC | 1.016 ± 0.0053
GATTGAGATT | 0.981 ± 0.033
TTTGGGGGGC | 1.05 ± 0.12
TCTTCTACCT | 1.2 ± 0.022
GCAGGTGACT | 1.33 ± 0.077
CGGACTTTG | 0.999 ± 0.026
CTCTCACTGC | 1.32 ± 0.05
TTAAATTGCT | 0.991 ± 0.025
GATAGCCTGT | 1.01 ± 0.027
GGTACTTGTA | 1 ± 0.016
GGGAGTGGGA | 1.01 ± 0.011
TCAGTAGAGA | 0.995 ± 0.018
GCAATTAATG | 1 ± 0.015
TAAATTGCG | 0.9991 ± 0.0013
